Test results reported in the supplement of paper PMC7877785.
± gives the uncertainty stated by the source.

Test: self-splicing fitness, log relative to wild type (ln ratio); higher = more splicing; Tetrahymena group I intron in knt gene, E. coli kanamycin selection, DiMSum; sequences stand for … in CUCUCU…GGAGGGAAAAGUUAUCAGGCAUGCACCUGGUAGCUAGUCUUUAAACCAAUAGAUUGCAUCGGUUUAAAAGGCAAGACCGUCAAAUUGCGGGAAAGGGGUCAACAGCCGUUCAGUACCAAGUCUCAGGGGAAACUUUGAGAUGGCCUUGCAAAGGGUAUGGUAAUAAGCUGACGGACAUGGUCCUAACCACGCAGCCAAGUCCUAAGUCAACAGAUCUUCUGUUGAUAUGGAUGCAGUUCACAGACUAAAUGUCGGUCGGGGAAGAUGUAUUCUUCUCAUAAGAUAUAGUCGGACCUCUCCUUAAUGGGAGCUAGCGGAUGAAGUGAUGCAACACUGGAGCCGCUGGGAACUAAUUUGUAUGCGAAAGUAUAUUGAUUAGUUUUGGAGUACUCGUGGUCG
Outline: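 Library with all eight P1ex-region intron nucleotides randomised, intron inside the knt kanamycin-resistance gene on pET-22b(+), in E. coli BL21(DE3). Cells grew overnight at 37°C or 30°C on LB agar with or without 25 μg/mL kanamycin (plus 100 μg/mL carbenicillin, 50 μM IPTG, 0.2% rhamnose), in six replicate transformations. Pooled colonies were amplicon-sequenced on Illumina HiSeq 2500. DiMSum fitness is the error-weighted combination of wild-type-normalised replicate fold changes, kanamycin versus none.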

Row | Sequence | self-splicing fitness (ln) (30 °C) | self-splicing fitness (ln) (37 °C)
1 | ACAGAGCAAUAUUACGAAUC | -2.92 ± 0.36 | –
2 | ACAGAGCAAUAUUACGAAUG | -3.82 ± 0.16 | -2.51 ± 0.19
3 | ACAGAGCAAUAUUACGACUU | -2.44 ± 0.16 | -1.52 ± 0.15
4 | ACAGAGCAAUAUUACGAGCU | -3.43 ± 0.18 | -2.22 ± 0.22
5 | ACAGAGCAAUAUUACGCAAU | -3.59 ± 0.32 | -2.42 ± 0.32
6 | ACAGAGCAAUAUUACGCACU | -3.25 ± 0.17 | -1.33 ± 0.14
7 | ACAGAGCAAUAUUACGCAUU | -4.18 ± 0.27 | -2.99 ± 0.31
8 | ACAGAGCAAUAUUACGCCAG | -2.37 ± 0.35 | -1.71 ± 0.49
9 | ACAGAGCAAUAUUACGCCGC | -3.09 ± 0.48 | -1.07 ± 0.36
10 | ACAGAGCAAUAUUACGCGUU | – | -1.16 ± 0.29
11 | ACAGAGCAAUAUUACGGAGA | -3.21 ± 0.26 | -2.6 ± 0.29
12 | ACAGAGCAAUAUUACGGCUG | -0.984 ± 0.096 | -0.796 ± 0.13
13 | ACAGAGCAAUAUUACGGGAU | -3.52 ± 0.11 | -3.03 ± 0.15
14 | ACAGAGCAAUAUUACGGUAA | -3.43 ± 0.25 | -2.26 ± 0.23
15 | ACAGAGCAAUAUUACGUAGU | -1.7 ± 0.14 | -2.87 ± 0.21
16 | ACAGAGCAAUAUUACGUAUG | -2.91 ± 0.17 | -3.39 ± 0.37
17 | ACAGAGCAAUAUUACGUCAG | -3.02 ± 0.13 | -2.43 ± 0.2
18 | ACAGAGCAAUAUUACGUGCU | -4.27 ± 0.37 | -2.48 ± 0.41
19 | ACAGAGCAAUAUUACGUGGU | -3.82 ± 0.2 | -2.37 ± 0.21
20 | ACAGAGCAAUAUUACGUUGG | -2.73 ± 0.16 | -3.57 ± 0.19
21 | ACAGAGCAAUAUUACGUUUU | -3.47 ± 0.24 | -3.26 ± 0.32
22 | ACAUAGCAAUAUUACGAAGA | -3.19 ± 0.18 | -2.72 ± 0.16
23 | ACAUAGCAAUAUUACGACGG | -1 ± 0.091 | -0.32 ± 0.12
24 | ACAUAGCAAUAUUACGAGGC | -4.03 ± 0.36 | -2.2 ± 0.32

Row | Sequence | self-splicing fitness (ln) (30 °C) | self-splicing fitness (ln) (37 °C)
25 | ACAUAGCAAUAUUACGAUUU | -0.687 ± 0.062 | -0.157 ± 0.081
26 | ACAUAGCAAUAUUACGCAAA | -3.29 ± 0.16 | -2.25 ± 0.14
27 | ACAUAGCAAUAUUACGCACA | -0.98 ± 0.099 | -0.0165 ± 0.12
28 | ACAUAGCAAUAUUACGCACG | -2.07 ± 0.2 | -1.01 ± 0.15
29 | ACAUAGCAAUAUUACGCACU | -0.38 ± 0.083 | 0.676 ± 0.1
30 | ACAUAGCAAUAUUACGCCUU | -1.25 ± 0.083 | -0.057 ± 0.085
31 | ACAUAGCAAUAUUACGCGCC | -0.408 ± 0.16 | 0.199 ± 0.26
32 | ACAUAGCAAUAUUACGCUAU | -2.9 ± 0.13 | -2.38 ± 0.2
33 | ACAUAGCAAUAUUACGCUGC | -2.01 ± 0.22 | -0.747 ± 0.15
34 | ACAUAGCAAUAUUACGCUGG | -2.36 ± 0.11 | -1.46 ± 0.12
35 | ACAUAGCAAUAUUACGGCAU | -1.06 ± 0.072 | -0.486 ± 0.079
36 | ACAUAGCAAUAUUACGGCGG | -1.04 ± 0.049 | -0.52 ± 0.072
37 | ACAUAGCAAUAUUACGGGAU | -1.88 ± 0.1 | -0.904 ± 0.12
38 | ACAUAGCAAUAUUACGGGUA | -2.8 ± 0.19 | -2.35 ± 0.14
39 | ACAUAGCAAUAUUACGGGUC | -3.93 ± 0.25 | -3.24 ± 0.28
40 | ACAUAGCAAUAUUACGGUCC | -1.91 ± 0.087 | -1.77 ± 0.11
41 | ACAUAGCAAUAUUACGUAAA | -1.66 ± 0.12 | -1.75 ± 0.21
42 | ACAUAGCAAUAUUACGUACC | -0.809 ± 0.17 | 0.0877 ± 0.2
43 | ACAUAGCAAUAUUACGUAGC | -2.78 ± 0.13 | -2.04 ± 0.19
44 | ACAUAGCAAUAUUACGUAGG | -3.02 ± 0.13 | -1.84 ± 0.12
45 | ACAUAGCAAUAUUACGUCUG | -1.24 ± 0.071 | -0.845 ± 0.09
46 | ACCAAGCAAUAUUACGAAAU | -2.89 ± 0.12 | -2.08 ± 0.15
47 | ACCAAGCAAUAUUACGAACU | -0.54 ± 0.061 | -0.819 ± 0.08
48 | ACCAAGCAAUAUUACGACAA | -2.14 ± 0.15 | -1.11 ± 0.12

Row | Sequence | self-splicing fitness (ln) (30 °C) | self-splicing fitness (ln) (37 °C)
49 | ACCAAGCAAUAUUACGACAU | -1.04 ± 0.011 | -0.296 ± 0.032
50 | ACCAAGCAAUAUUACGAGUC | -3.65 ± 0.2 | -1.25 ± 0.15
51 | ACCAAGCAAUAUUACGAUUA | -2.23 ± 0.11 | -1.03 ± 0.085
52 | ACCAAGCAAUAUUACGAUUU | -1.51 ± 0.041 | -1.26 ± 0.054
53 | ACCAAGCAAUAUUACGCAUA | -1.77 ± 0.068 | -1.44 ± 0.073
54 | ACCAAGCAAUAUUACGCCAC | -1.48 ± 0.31 | -2.12 ± 0.3
55 | ACCAAGCAAUAUUACGCGCU | -0.723 ± 0.07 | 0.206 ± 0.089
56 | ACCAAGCAAUAUUACGCUAA | -3.3 ± 0.16 | -2.33 ± 0.14
57 | ACCAAGCAAUAUUACGCUCC | -1.35 ± 0.17 | -0.621 ± 0.25
58 | ACCAAGCAAUAUUACGGAAA | -3.14 ± 0.18 | -1.9 ± 0.13
59 | ACCAAGCAAUAUUACGGCUA | -0.574 ± 0.065 | -0.0302 ± 0.07
60 | ACCAAGCAAUAUUACGGUAU | -3.45 ± 0.13 | -0.475 ± 0.094
61 | ACCAAGCAAUAUUACGUGAC | -3.55 ± 0.13 | -1.99 ± 0.11
62 | ACCAAGCAAUAUUACGUGCU | -1.7 ± 0.096 | -0.864 ± 0.096
63 | ACCCAGCAAUAUUACGAAAC | -2.77 ± 0.12 | -1.04 ± 0.15
64 | ACCCAGCAAUAUUACGAAAU | -1.42 ± 0.07 | -1.21 ± 0.083
65 | ACCCAGCAAUAUUACGAAGA | -1.74 ± 0.12 | -1.36 ± 0.15
66 | ACCCAGCAAUAUUACGAAGC | -0.907 ± 0.069 | -0.523 ± 0.072
67 | ACCCAGCAAUAUUACGACGG | -1.39 ± 0.078 | -0.9 ± 0.086
68 | ACCCAGCAAUAUUACGAGGG | -3.43 ± 0.15 | -2.47 ± 0.17
69 | ACCCAGCAAUAUUACGCACU | -0.41 ± 0.064 | 0.0872 ± 0.077
70 | ACCCAGCAAUAUUACGCAGU | -0.609 ± 0.055 | -0.106 ± 0.066
71 | ACCCAGCAAUAUUACGCAUC | -1.33 ± 0.076 | 0.0782 ± 0.098
72 | ACCCAGCAAUAUUACGCGUG | -3.53 ± 0.17 | -1.9 ± 0.13

Row | Sequence | self-splicing fitness (ln) (30 °C) | self-splicing fitness (ln) (37 °C)
73 | ACCCAGCAAUAUUACGCUAC | -4.01 ± 0.27 | -2.38 ± 0.19
74 | ACCCAGCAAUAUUACGCUCC | -0.481 ± 0.099 | -0.338 ± 0.14
75 | ACCCAGCAAUAUUACGCUUU | -0.704 ± 0.049 | 0.0854 ± 0.064
76 | ACCCAGCAAUAUUACGGACC | -0.974 ± 0.073 | -0.347 ± 0.089
77 | ACCCAGCAAUAUUACGGCCG | -2.81 ± 0.15 | -2.6 ± 0.19
78 | ACCCAGCAAUAUUACGGGAG | -1.23 ± 0.059 | -1.05 ± 0.082
79 | ACCCAGCAAUAUUACGGUAC | -2.51 ± 0.081 | -0.741 ± 0.078
80 | ACCCAGCAAUAUUACGUAUC | -2.25 ± 0.077 | -1.63 ± 0.092
81 | ACCCAGCAAUAUUACGUCCA | -1.27 ± 0.12 | -0.696 ± 0.16
82 | ACCCAGCAAUAUUACGUCGG | -2.15 ± 0.073 | -0.593 ± 0.088
83 | ACCCAGCAAUAUUACGUCUG | -3.16 ± 0.12 | -2.79 ± 0.14
84 | ACCCAGCAAUAUUACGUGAC | -1.07 ± 0.047 | -1.25 ± 0.085
85 | ACCCAGCAAUAUUACGUGCC | -1.98 ± 0.08 | -0.963 ± 0.1
86 | ACCCAGCAAUAUUACGUUAC | -3.24 ± 0.14 | -1.13 ± 0.14
87 | ACCCAGCAAUAUUACGUUCG | -3.74 ± 0.14 | -1.26 ± 0.088
88 | ACCGAGCAAUAUUACGAGUA | -3.23 ± 0.27 | -3.5 ± 0.35
89 | ACCGAGCAAUAUUACGCAUC | -1.14 ± 0.17 | –
90 | ACCGAGCAAUAUUACGCCAA | – | -2.01 ± 0.3
91 | ACCGAGCAAUAUUACGCUCG | -3.22 ± 0.32 | -1.61 ± 0.2
92 | ACCGAGCAAUAUUACGCUGA | -3.32 ± 0.24 | -1.24 ± 0.16
93 | ACCGAGCAAUAUUACGCUGC | -2.73 ± 0.16 | -2.5 ± 0.23
94 | ACCGAGCAAUAUUACGGCCU | -0.622 ± 0.086 | 0.418 ± 0.11
95 | ACCGAGCAAUAUUACGGCGG | -3.59 ± 0.3 | -2.58 ± 0.39
96 | ACCGAGCAAUAUUACGGGAU | -3.29 ± 0.13 | -2.5 ± 0.15
